Experimental data: the RNAGym collection of RNA variant scans (doi:10.1093/nar/gkz1192)

B1: CPEB3 Ribozyme (parent)
chain: UAACAGGGGGCCACAGCAGAAGCGUUCACGUCGCAGCCCCUGUCAGAUUCUGGUGAAUCUGCGAAUUCUGCUGUAUAUCUC

Variants of: B1
Test: self-cleavage, relative activity (ratio to wild type); higher = more cleavage; in vitro, sequencing
Procedure, shortened: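 Libraries of CPEB3 self-cleaving ribozyme mutants came from rounds of error-prone PCR and carried barcodes, which DNA sequencing matched to variants. In vitro transcription used T7 RNA polymerase at 37°C for 5 hours, with a further 15 min in DNase I before EDTA stopped the reaction; the ribozymes cleaved during both steps. The RNA was reverse transcribed with template switching and sequenced on Illumina. Relative activity is the cleaved/total read fraction of a variant divided by that of the unmutated ribozyme, averaged over three batches with at least 5 reads.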

Variant | self-cleavage
G19A G42A | 0.15
A20C A21U | 0.2
A20C A21G | 0.49
G19C A57G | 0.23
G19C A57U | 0.13
A18U U41C | 0.38
A18U U41A | 0.22
A20C A64U | 0.17
A20C A64G | 0.07
G19U A35G | 0.63
G19U A35U | 0.15
G19U U69A | 0.27
G19U U69C | 0.09
A20C C23A | 0.09
G19U A57C | 0.19
G19U A57G | 0.48
G19A A35U | 0.17
G19U G63U | 0.28
A20C A77G | 0.11
A20C A77U | 0.35
G19C C40U | 0.29
A18U U51C | 0.42
A18U U51A | 0.41
G19C G24A | 0.11

Variant | self-cleavage
G19A C32A | 0.08
G19A U48C | 0.16
G19U U58C | 0.39
G19U U58A | 0.04
G19U U58G | 0.12
G19U A56U | 0.14
G19U A56G | 0.5
G19A U31A | 0.44
G19A U60G | 0.4
G19U U78C | 0.32
A18U C81G | 0.27
A18U C81A | 0.69
A18U C81U | 0.51
A18U U74A | 0.62
A18U U74C | 0.61
G19U C40A | 0.21
A18U A77G | 0.51
A18U A77U | 0.48
A18U A20U | 0.25
A18U A20G | 0.34
G19U G73U | 0.56
G19U G73A | 0.51
G19A A28G | 0.2
A18U A45U | 0.25

Variant | self-cleavage
A18U A45C | 0.16
A18U A45G | 0.32
G19C U60A | 0.16
G19C U60C | 0.15
A20C | 0.3
G19A U49C | 0.1
A18U C23U | 0.23
A18U C23G | 0.22
A18U C23A | 0.1
A18U C32U | 0.08
A18U C32A | 0.17
A18U C32G | 0.17
G19C U26C | 0.27
G19C A35U | 0.22
G19C A35C | 0.2
G19C U41A | 0.44
G19C U41G | 0.32
G19C U41C | 0.18
A18G U74C | 1.1
A18G U74A | 0.95
A18G U74G | 1.21
G19U U41C | 0.22
G19U U41A | 0.22
G19U U25A | 0.19

Variant | self-cleavage
G19U U25G | 0.2
G19U U25C | 0.08
A18G U60C | 0.28
A18G U60G | 0.14
A18G U60A | 0.38
G19A A56U | 0.12
G19A A56G | 0.2
A18U G24A | 0.36
G19U A65G | 0.26
G19U A65U | 0.09
G19A U43A | 0.36
A18U U58G | 0.03
A18U U58A | 0.19
A18U U58C | 0.32
G19A C59U | 0.17
G19U C44A | 0.43
G19U C44U | 0.18
A20C A35G | 0.88
A20C A35U | 0.17
A18U G55U | 0.41
A18U G55A | 0.29
G19U U60A | 0.45
G19U U60C | 0.28
A18U A65G | 0.28

Variant | self-cleavage
A18U A65U | 0.2
G19A U67C | 0.17
G19A U67A | 0.07
A18G U76A | 0.73
A18G U76C | 0.58
G19C G22A | 0.22
G19U C50A | 0.15
G19U C50U | 0.38
G19C U78C | 0.71
G19U U72G | 0.4
G19U U72A | 0.32
G19U U72C | 0.4
G19U A21G | 0.2
A18U C50A | 0.4
A18U C50U | 0.42
G19C U48A | 0.18
G19C U48C | 0.35
A18U U31G | 0.17
A18U U31C | 0.26
A18U U31A | 0.3
G19A U66A | 0.13
G19A U66G | 0.51
G19A U66C | 0.44
G19C U74C | 0.19

Variant | self-cleavage
G19A A77G | 0.3
A18U U80C | 0.52
A18U U80G | 0.51
A18U U80A | 0.53
A18U C38U | 0.31
A18U C40U | 0.45
A18U C40G | 0.18
A18U C40A | 0.13
G19A A64G | 0.21
A18U U67C | 0.26
A18U U67A | 0.21
A18U U67G | 0.19
A18U G33A | 0.3
G19A U54C | 0.23
G19A U25C | 0.13
G19A U25A | 0.28
G19C A28U | 0.07
G19U G36A | 0.18
G19U G36C | 0.19
G19U A45G | 0.08
G19U A45C | 0.22
G19U A45U | 0.2
A18U G70U | 0.21
A18U C68A | 0.2

Variant | self-cleavage
G19A C39A | 0.11
G19A C39U | 0.33
G19A C29G | 0.24
A18U G53U | 0.45
A18U G53A | 0.56
A18U G46U | 0.2
A18U C29A | 0.19
A18U C29U | 0.17
A18U G19U | 0.21
A18U G19C | 0.23
A18U G19A | 0.15
G19U A75U | 0.28
G19U A47U | 0.5
G19U A47G | 0.22
G19A G52A | 0.16
G19U U51C | 0.22
G19U U51A | 0.18
G19C G52U | 0.35
G19A A45U | 0.07
G19A A45G | 0.25
A18U C62G | 0.27
A18U C62U | 0.33
A18U C62A | 0.28
